# Assay: yeast display, Sf9 membrane polyspecificity reagent, FACS + sequencing; frameworks hold sequencing errors
# Outline: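 Galactose induction of a Saccharomyces cerevisiae BJ5465 synthetic nanobody display library ran 36–48 hours. The cells were then stained for 1 hour at 4 °C with 10% biotinylated, detergent-solubilized Sf9 membrane reagent, pulled down on streptavidin microbeads and FACS-sorted into low and high (top ~1%) gates on expression and reagent-binding fluorescence. Labels for polyreactivity follow the gate of origin.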
row,Sequence,polyreactivity (PSR sort gate)
1,QVQLVESGGGLVQAGGSLRLSCAASGSIFYKYAMGWYRQAPGKERELVASITSGGITNYADSVKGRFTISRDNAKNTVFLQMNSLKPEDTAVYYCNAANPYRRVGSFTYKYDYWGQGTQVTVSS,low polyreactivity
2,QVQLVESGGGLVQAGGSLRLSCAASGSIFYKYAMGWYRQARGKERELVAAINRGVSTYYADSVKGRFTISRDNAKNTVYLQLTSLKPEDTAVYYCNADSTELRGYYYWGLGTQVTVSS,low polyreactivity
3,QVQLVESGGGLVQAGGSLRLSCAASGSIFYKYVMGWYRQAPGKERELVAAISRGGGSTYYADSVKGRFTISRDNAKNSVYLQMNSLKPEDTAVYYCNAVGRPRYGHGFDHWGQGTQETVSS,high polyreactivity
4,QVQLVESGGGLVQAGGSLRLSCAASGSIFYLNAMGWYRQAPGKERELVATISNGGSTNYADSVKGRFTISRDNAKNTVYLQMNSLKPEDTAVYYCAAASGGTVVGEGDYWGQGTQVTVSS,low polyreactivity
5,QVQLVESGGGLVQAGGSLRLSCAASGSIFYLNAMGWYRQAPGQERELVASISNGGSTNYADSVKGRFTISRDNAKHTVYLQMNSLKPEVTAVYYCAADYVVSAFDYWGQGTQLTVSS,low polyreactivity
6,QVQLVESGGGLVQAGGSLRLSCAASGSIFYLYALGWYRQAPGKERELVAAISSSGGRTYYADSVKGRFTISRDNAKNTVYLQMNSLKPEDTAVYYCAARYWAKYSYGYWGQGTQVTVSS,high polyreactivity
7,QVQLVESGGGLVQAGGSLRLSCAASGSIFYLYAMGWYRQAPGKERELVADITITGGSTYYADSVKGRFTISRDNAKNTVYLQMNSLKPEDTAVYYCAADEFWFTYRYDYWGQGTQVTVSS,high polyreactivity
8,QVQLVESGGGLVQAGGSLRLSCAASGSIFYLYAMGWYRQAPGKERELVATISLSSGSTYADSVKGRFTISRDNAKNTVYLQMNSLKPDDTAVYYCAKDLSRWGYNEYDYWGQGTQVTLSS,low polyreactivity
9,QVQLVESGGGLVQAGGSLRLSCAASGSIFYLYTMGWYRQAPGKERELVAAITSGGSTNYADSVKGRFTISRDNAKNTVYLQMNSLKPEDTAVYYCAAEYFDWWVTYDYWGQGTQVTVSS,high polyreactivity
10,QVQLVESGGGLVQAGGSLRLSCAASGSIFYNNAMGWYRQAPGKERELVAAITIGGSTNYADSVKGRFTISRDNAKNTVYLQMNSLKPEDTAVYYCAAGKPGAYRYGSIVRFDHWGQGTQVTVSS,low polyreactivity
11,QVQLVESGGGLVQAGGSLRLSCAASGSIFYNNVMGWYRQAPGKERELVAVISGGGSTNYADSVKGRFTISRDNAKNTDYLQMNSLKPEDTAVYYCAARGRYSYGDRYEYWGQGTQVTVSS,low polyreactivity
12,QVQLVESGGGLVQAGGSLRLSCAASGSIFYPYAMGWYRQAPGKERELVAAISYSGGSTYYADSVKGSFTISRDNAKNTVYLQMNSLKPEDTAVYYCNRRYWRRPYYKYDYWGQGTQVTVSS,high polyreactivity
13,QVQLVESGGGLVQAGGSLRLSCAASGSIFYPYAMGWYRQAPGKERELVARIRGTGGRTYYADSVKGRFTISRDNAKNTVYLQMNSLKPEDTAVYYCNAQTSGRVGSQYYSYYGSWGQGTQLTVSS,high polyreactivity
14,QVQLVESGGGLVQAGGSLRLSCAASGSIFYPYAMGWYRQAPGKERELVATINEDGGSTYYADSVKGRFTISRDNAKNTVYLQMNSLKPEDTAVYYCNTDHFEDYHTDFWSDYEYWGQGTQVTVSS,low polyreactivity
15,QVQLVESGGGLVQAGGSLRLSCAASGSIFYPYAMGWYRQAPGKERELVATISSGVNTNYADSVKGRFTISRDNAKNTVYLQMNSLKPVDTAVYYCAARFRHSFRRGGGYNYDYWGQGTQVTVSS,high polyreactivity
16,QVQLVESGGGLVQAGGSLRLSCAASGSIFYQYAMGWYRQAPGTERELVAAITWIGSPNYADSVKGRFTISRDNAKNTVYLQMNSLKPEDTAVYYCNTDPYVLQKYDYWGQGTQVTVSS,low polyreactivity
17,QVQLVESGGGLVQAGGSLRLSCAASGSIFYRITMGWYRQAPGKERELVAAISTNGGSTYYADSVKGRFTISRDNAKNSVYLQMNSLKPEDTAVYYCAADLRRSDYDYWGQGTQVTVSS,high polyreactivity
18,QVQLVESGGGLVQAGGSLRLSCAASGSIFYRNAMGWSRQPPGKERELVAGITTRGGSTYYADSVKGRFTISRDNAKNTVYLQMNSLKPEDTAVYYCAAVPYSRYSSSRGYWGQGTQVTVSS,high polyreactivity
19,QVQLVESGGGLVQAGGSLRLSCAASGSIFYRNAMGWYIQAPGKERELVAAISRRGGITYYADSVKGRFTISRDNAKNTVYLQMNSLKPEDTAVYYCYTDTGGMDYWGQGTQVTVSS,high polyreactivity
20,QVQLVESGGGLVQAGGSLRLSCAASGSIFYRNAMGWYRPAPGKERELVAAISSDGSTNYADSVKGRFTISRDNAKNTVYLQMNSLKPEDTAVYYCAVDRYRYPFDYWGQGTQVTVSS,low polyreactivity
21,QVQLVESGGGLVQAGGSLRLSCAASGSIFYRNAMGWYRQAPGKERELVATITVNGGRTYYADSVKGRFTISRDNANNTVYLQMNSLKPEDTAVYDCAKDVHRWDPYDYWGQGTQVTVSS,low polyreactivity
22,QVQLVESGGGLVQAGGSLRLSCAASGSIFYRNTMGWYRQAPGKERELVAGITGNGGRTYYADSVKGRFTISRDNAKNTVYLQMNSQKPEDTAVYYCAAGTWTWYRYYYWGQGTQVTVSS,high polyreactivity

row,Sequence,polyreactivity (PSR sort gate)
1,QVQLVESGGGLVQAGGSLRLSCAASGSIFYRYAMGWYRQAPGKERELFATITQSGVSTYYADSVKGRFTISRDNAKNTVFLQRISLKPEDTAVYYCAASYYYTIGPYLRKFDWGQGTQVTVSS,low polyreactivity
2,QVQLVESGGGLVQAGGSLRLSCAASGSIFYRYAMGWYRQAPGKERELVAAINWSGGSTYYADSVKGGFTISRDNAKNTVYLQMNTLKPEDTAVYYCAARLYWRRYDYWGQGTQVTVSS,high polyreactivity
3,QVQLVESGGGLVQAGGSLRLSCAASGSIFYRYAMGWYRQAPGKERELVAAIRWSGGSTYYADSVKGRFTISRDNAKNTVYLQMNSLKPEDTAVYYCATEVSSGGYWSWYGYWGQGTQVTVSS,low polyreactivity
4,QVQLVESGGGLVQAGGSLRLSCAASGSIFYRYAMGWYRQAPGKERELVAAISRSGGRTYYADSVKGRFTISRDNAKNTVYLQMNSLKPEDTAVYYCAAESTVGTDLGGDSWGQGTQVTVSS,high polyreactivity
5,QVQLVESGGGLVQAGGSLRLSCAASGSIFYRYAMGWYRQAPGKERELVAAISSGSSTHYADSVKGRFTISRDNAKNTVYLQMNSLKPEDTAVYYCAARYRAFTSTRRFDYWGQGTQVTVSS,high polyreactivity
6,QVQLVESGGGLVQAGGSLRLSCAASGSIFYRYAMGWYRQAPGKERELVAAISSRGGSTNYADSVKGRFTISRDNAKNTVYLQMNSLKPEDTAVYYCAAGWNYLRQFNFNYWGQGTQVTVSS,high polyreactivity
7,QVQLVESGGGLVQAGGSLRLSCAASGSIFYRYAMGWYRQAPGKERELVADISSGGGTSYADSVKGRFTISRDNAKNTVYLQMNSLKPEDTAVYYCAAELYYWTYVRFDYWGQGTQVTVSS,low polyreactivity
8,QVQLVESGGGLVQAGGSLRLSCAASGSIFYSNAKGWYRQAPGKERELVATITWSGGRTYYADSVKGRFTISRDNAKNTVYLQMNILKPEDTAVYYCAAVSIYWGQGTQVTVSS,low polyreactivity
9,QVQLVESGGGLVQAGGSLRLSCAASGSIFYSNAMGWYRQAAGKERELVAAISVSGVSTYYADSVKGRFTISRDTAKNTVYLQMNSLKPEDTAVYYCAADTGYRYDDYYWWGGEYDYWGQGTQVTVSS,low polyreactivity
10,QVQLVESGGGLVQAGGSLRLSCAASGSIFYSNAMGWYRQAPGKERELVAAINWRGGSTYYADSVKGRFTISRDYAKNTVYLQMNSLKPEDTAVYYCNADSYDEIKYGYWGQGTQVTVSS,low polyreactivity
11,QVQLVESGGGLVQAGGSLRLSCAASGSIFYSNAMGWYRQAPGKERELVAAISVSGVTTYYADSVKGRFTISRDNAKNTVYLQMNSLKPEDTAVYYCAADTGYRYDDYYWWGGEYDYWGQGTQVTVSS,low polyreactivity
12,QVQLVESGGGLVQAGGSLRLSCAASGSIFYSNAMGWYRQAPGKERELVAAITRRGGSTYYADSVKGRFTISRDNAKNTVYLQMNSLKPEDTAVYYCAARYYRRFAHYGEYGYWGQGTQVTVSS,high polyreactivity
13,QVQLVESGGGLVQAGGSLRLSCAASGSIFYSNAMGWYRQAPGKERELVAAITRRGGSTYYADSVKGRFTISRDNAKNTVYLQMNSLKPEDTAVYYCNRDPDIYIGYDYWGQGTQVTVSS,high polyreactivity
14,QVQLVESGGGLVQAGGSLRLSCAASGSIFYSNAMGWYRQAPGKERELVAAITWSGGSTYYADSVKGRFTISRDNAKNTVYLQMNSLKPEDTAVYYCNARRNVRQTFGYEYWGQGTQVTVSS,high polyreactivity
15,QVQLVESGGGLVQAGGSLRLSCAASGSIFYSNAMGWYRQAPGKERELVARITWSGGSTYYADSVKGRFTISRDNAKNTVYLQMNSLKPEDTAVYYCNKVIFRYFTTRPTRTYEYWGQGTQVTVSS,low polyreactivity
16,QVQLVESGGGLVQAGGSLRLSCAASGSIFYSNAMGWYRQAPGKERELVATIRSGGTTYYADSVKGRFTISRDNAKNTVYLQMNSLKPEDTAVYYCAKRYGVKYWGQGTQVTVSS,high polyreactivity
17,QVQLVESGGGLVQAGGSLRLSCAASGSIFYSNVMGWYRQAPGKERELVAAISKNGGSTYYADSVKGRFTISRDNAKNTVYLQMNSLKPEDTAVYYCAKYGYVGTTYGYWGQGTQVTVSS,high polyreactivity
18,QVQLVESGGGLVQAGGSLRLSCAASGSIFYSYAKGWYRQAPGKERELVAAISWDASTYFADSVKGRFTISRDNAKYSVYLQMNSLKPEDTAVYYCNADIPYYFVYDAYDYWGQGTQVTVSS,low polyreactivity
19,QVQLVESGGGLVQAGGSLRLSCAASGSIFYSYAMGWSRQAPGKERELFAAISYSTTSTYYADSVKGRFTISCDNAKNTVYLQMKSLKPEDTAVYYCAVDYIIWYDGYLLYYWGQGTQVTVSS,low polyreactivity
20,QVQLVESGGGLVQAGGSLRLSCAASGSIFYSYAMGWYRQAPGKERELVAAISYSSGSTYYADSVKGRFTISRDNAKNTVYLQMNSLKPEDTAVYYCAAEGNGWQVDVTEVGEYDSWGQGTQVTVSS,high polyreactivity
21,QVQLVESGGGLVQAGGSLRLSCAASGSIFYSYAMGWYRQAPGKERELVARINYRGGSTYYADSVKGRFTISRDNAMNTVYLQMNSLKPEDTAVYYCAKRSYWSSNPRDYWGQGTQVTVSS,high polyreactivity

# Source: the nanobody polyreactivity screen of Harvey et al. (2022)
